Test results taken from the supplement of paper PMC11136658.

System: peptide library, one residue held at a place counted from the Y acceptor
Assay: relative phosphorylation of the sub-library (ratio to the mean residue at this position); higher = residue favoured
Procedure, shortened: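 Within 384-well plates, purified recombinant kinases phosphorylated biotinylated Tyr-centred peptide library mixtures over 90 min using 50 μM ATP spiked with γ-32P-ATP; each mixture fixed one residue at one position from −5 to +5. Streptavidin membrane capture, rinsing, phosphorimaging and ImageQuant gave the intensities. These were normalized per position to the sum of the 18 randomized residues (16 for the Ser/Thr-free library) and multiplied by that number.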

EPHB4, construct: aa561-end, human, sequence (P54760 561-987, looked up): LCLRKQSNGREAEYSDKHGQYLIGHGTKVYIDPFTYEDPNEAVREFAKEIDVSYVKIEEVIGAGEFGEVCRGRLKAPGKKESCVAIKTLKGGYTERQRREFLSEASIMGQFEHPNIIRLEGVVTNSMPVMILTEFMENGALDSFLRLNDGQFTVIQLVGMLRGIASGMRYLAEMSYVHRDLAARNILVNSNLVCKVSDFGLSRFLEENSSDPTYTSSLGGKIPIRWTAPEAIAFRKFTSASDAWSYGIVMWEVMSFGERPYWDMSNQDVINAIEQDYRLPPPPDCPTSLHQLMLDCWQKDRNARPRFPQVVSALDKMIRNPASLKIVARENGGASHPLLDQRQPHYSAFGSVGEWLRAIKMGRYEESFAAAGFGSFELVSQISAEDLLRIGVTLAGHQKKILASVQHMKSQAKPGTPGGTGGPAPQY
EPHB3, construct: aa623-907, human, sequence (P54753 623-907, looked up): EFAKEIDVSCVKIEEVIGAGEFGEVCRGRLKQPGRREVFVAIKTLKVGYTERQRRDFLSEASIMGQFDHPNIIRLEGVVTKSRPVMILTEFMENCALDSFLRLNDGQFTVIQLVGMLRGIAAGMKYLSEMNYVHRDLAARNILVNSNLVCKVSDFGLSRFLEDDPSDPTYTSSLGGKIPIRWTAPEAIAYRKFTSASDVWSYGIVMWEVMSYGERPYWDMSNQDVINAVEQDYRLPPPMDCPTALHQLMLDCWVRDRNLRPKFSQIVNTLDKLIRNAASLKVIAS
EPHB1, construct: aa613-881, human, sequence (P54762 613-881, looked up): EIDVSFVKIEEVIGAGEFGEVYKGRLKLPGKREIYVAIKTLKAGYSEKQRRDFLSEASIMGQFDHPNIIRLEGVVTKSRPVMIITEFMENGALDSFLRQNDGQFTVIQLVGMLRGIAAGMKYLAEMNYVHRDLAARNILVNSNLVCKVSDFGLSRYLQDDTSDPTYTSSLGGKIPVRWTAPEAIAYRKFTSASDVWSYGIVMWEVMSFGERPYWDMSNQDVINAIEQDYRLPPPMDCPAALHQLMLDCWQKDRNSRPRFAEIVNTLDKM
EPHB2, construct: aa611-893, human, sequence (P29323 611-893, looked up): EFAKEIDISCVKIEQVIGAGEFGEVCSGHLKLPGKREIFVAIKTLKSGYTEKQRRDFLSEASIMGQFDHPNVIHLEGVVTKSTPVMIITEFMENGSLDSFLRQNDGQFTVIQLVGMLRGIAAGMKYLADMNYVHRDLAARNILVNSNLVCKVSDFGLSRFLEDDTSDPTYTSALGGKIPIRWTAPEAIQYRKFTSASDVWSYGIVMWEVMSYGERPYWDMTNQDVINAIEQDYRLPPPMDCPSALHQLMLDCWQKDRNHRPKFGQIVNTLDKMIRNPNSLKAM

EPHB1, construct: aa613-881, human (from UniProt P54762)
relative phosphorylation
Conditions	at +1	at +2	at +3	at +4	at +5	at -1	at -2	at -3	at -4	at -5
A fixed	1.86	0.98	0.818	0.902	1.1	0.664	1.16	0.857	0.999	0.906
D fixed	0.907	1.01	0.511	1.08	1.13	2.22	1.09	1.22	1.23	1.15
E fixed	2.33	1.18	0.427	1.04	1.06	1.2	1.27	1.34	1.26	1.01
F fixed	0.676	1.14	1.37	1.06	1.13	1.19	0.677	1.31	1.19	1.07
G fixed	0.571	0.414	0.575	1.03	1.05	0.223	1.23	0.898	1.15	0.979
H fixed	0.566	0.769	1.39	1.18	0.938	0.762	0.888	1.05	0.872	0.934
I fixed	1.67	1.36	2.18	0.773	0.815	2.09	0.872	0.944	0.907	0.956
K fixed	0.212	0.585	0.29	0.744	0.784	0.264	0.946	0.631	0.931	1.05
L fixed	0.823	1.04	1.37	0.828	1.08	1.95	0.914	1.02	1.07	1.11
M fixed	1.48	0.935	1.19	1.07	1.01	0.95	0.689	0.874	0.872	0.926
N fixed	0.383	0.951	0.731	0.806	0.856	1.81	1.05	1.03	0.844	1.13
P fixed	0.195	0.858	0.899	1.29	1.49	0.436	1.33	1.2	1.21	0.947
Q fixed	1.22	0.982	0.849	1.07	0.94	0.423	1.13	0.835	1.19	1.13
R fixed	0.252	0.768	0.419	0.835	0.782	0.29	0.905	0.672	0.9	1.01
S fixed	0.934	0.981	0.691	0.94	0.972	0.519	1.3	0.923	0.722	0.841
T fixed	0.868	1.02	0.848	0.939	0.938	0.968	0.917	0.844	0.667	0.757
V fixed	1.83	1.56	1.95	0.911	0.876	1.24	0.912	0.928	0.854	0.949
W fixed	1.22	1.45	1.49	1.5	1.05	0.811	0.714	1.42	1.14	1.15
pThr fixed	1.9	1.95	0.439	1.03	0.655	1.58	0.851	0.856	0.945	1.02
pTyr fixed	1.56	3.38	0.718	1.1	0.883	1.69	0.936	1.13	1.12	1.25

EPHB2, construct: aa611-893, human (from UniProt P29323)
relative phosphorylation
Conditions	at +1	at +2	at +3	at +4	at +5	at -1	at -2	at -3	at -4	at -5
A fixed	1.72	0.968	0.884	0.898	1.16	0.485	1.16	0.764	1.06	1.02
D fixed	1.17	1.15	0.473	1.11	1.01	2.48	1.32	1.45	1.35	1.24
E fixed	2.89	1.54	0.434	1.07	1.06	1.55	1.47	1.76	1.28	0.996
F fixed	0.59	1.27	1.36	0.922	0.937	0.938	0.635	1.33	1.11	0.972
G fixed	1.1	0.438	0.65	1.2	1.18	0.224	1.17	0.845	1.28	1.05
H fixed	0.443	0.626	1.29	1.1	0.998	0.494	0.825	0.807	0.872	0.921
I fixed	1.23	1.39	1.72	0.817	0.889	2.02	0.77	1	0.898	0.905
K fixed	0.166	0.428	0.273	0.699	0.691	0.207	0.791	0.522	0.784	0.995
L fixed	0.752	0.958	1.31	0.864	1.06	1.85	0.769	0.927	0.963	0.946
M fixed	1.33	0.838	1.19	1.09	0.934	0.759	0.674	0.919	0.868	0.942
N fixed	0.41	0.927	0.646	0.796	0.853	2.06	1.26	1.03	0.937	1.11
P fixed	0.171	0.732	1.27	1.16	1.46	0.343	1.33	0.945	1.09	1.19
Q fixed	1.2	0.882	0.762	0.976	0.868	0.502	1.17	0.933	1.25	1.12
R fixed	0.22	0.618	0.433	0.771	0.756	0.245	0.749	0.603	0.802	0.96
S fixed	0.992	0.953	0.769	1.03	1.11	0.47	1.43	0.968	0.898	0.88
T fixed	0.766	1.1	0.908	0.949	1.05	1.03	0.923	0.794	0.667	0.726
V fixed	1.77	1.78	1.92	1.02	0.934	1.48	0.878	0.928	0.851	0.957
W fixed	1.07	1.41	1.7	1.52	1.04	0.868	0.657	1.46	1.05	1.07
pThr fixed	1.64	1.98	0.439	0.858	0.64	1.77	1.05	0.962	0.894	0.877
pTyr fixed	1.75	4.02	0.872	1.28	1.1	2.15	1.15	1.12	1.04	1.12

EPHB3, construct: aa623-907, human (from UniProt P54753)
relative phosphorylation
Conditions	at +1	at +2	at +3	at +4	at +5	at -1	at -2	at -3	at -4	at -5
A fixed	1.96	0.847	0.837	0.853	0.843	0.583	1.21	0.804	1.15	0.981
D fixed	1.06	0.993	0.442	1.06	1.14	2.09	1.04	1.04	1.03	0.921
E fixed	2.6	1.33	0.413	1.16	1.15	1.38	1.29	1.19	1.39	0.842
F fixed	0.588	1.38	1.31	1.04	0.656	1.03	0.661	1.39	1.09	1.16
G fixed	1.13	0.428	0.651	1.26	1.36	0.226	1.33	1.05	1.37	1.32
H fixed	0.573	0.91	1.57	1.19	1.12	0.638	0.9	1.05	0.899	0.933
I fixed	1.19	1.24	1.95	0.801	0.581	2.29	0.899	1.14	1.01	1.14
K fixed	0.211	0.576	0.297	0.737	1.02	0.234	0.841	0.61	0.898	0.992
L fixed	0.732	0.974	1.39	0.821	0.613	1.87	0.83	0.912	0.959	0.98
M fixed	1.14	0.913	1.29	0.984	0.927	0.849	0.709	0.928	0.854	0.9
N fixed	0.393	1.01	0.653	0.856	1.1	2.4	1.12	1.09	0.922	1.08
P fixed	0.157	0.739	1.26	1.54	1.46	0.415	1.32	1.12	1.06	1.06
Q fixed	1.31	0.954	0.799	1.01	1.07	0.406	1.18	0.837	1.11	0.989
R fixed	0.278	0.768	0.468	0.855	1.32	0.239	0.896	0.722	0.84	1.03
S fixed	1	0.886	0.689	0.8	1.2	0.516	1.3	1	0.82	0.869
T fixed	0.903	0.989	0.796	0.865	1.16	1.03	0.96	0.942	0.762	0.761
V fixed	1.64	1.29	1.7	0.814	0.552	1.1	0.848	0.874	0.777	0.795
W fixed	1.12	1.77	1.49	1.36	0.723	0.697	0.672	1.31	1.05	1.26
pThr fixed	1.34	1.82	0.32	0.825	0.763	1.63	0.847	0.897	0.873	0.831
pTyr fixed	1.5	3.93	0.629	0.894	0.978	1.79	1.05	1.06	1.06	0.83

EPHB4, construct: aa561-end, human (from UniProt P54760)
relative phosphorylation
Conditions	at +1	at +2	at +3	at +4	at +5	at -1	at -2	at -3	at -4	at -5
A fixed	2.01	0.93	0.981	0.836	0.988	0.59	1.26	0.954	1.17	1.05
D fixed	0.98	0.854	0.481	0.969	1.18	2.38	1.15	1.32	1.09	1.12
E fixed	2.09	1.19	0.409	1	0.934	1.38	1.07	1.52	1.14	0.945
F fixed	0.651	1.15	1.06	1.01	0.879	0.933	0.628	1.16	0.904	0.895
G fixed	1.03	0.54	0.694	1.16	1.22	0.36	1.17	0.986	1.39	1.38
H fixed	0.482	0.782	1.08	1.16	0.89	0.577	0.911	0.93	0.941	0.998
I fixed	1.02	1.19	1.47	0.663	0.675	1.91	0.772	0.996	0.965	0.775
K fixed	0.404	0.755	0.464	0.907	0.959	0.357	0.99	0.674	0.953	1.05
L fixed	0.774	0.955	1.49	0.792	0.77	1.77	0.834	0.82	0.797	0.838
M fixed	1.36	0.914	1.25	0.969	0.934	0.806	0.722	0.8	0.962	0.949
N fixed	0.489	1.05	0.698	0.947	1.03	2.07	1	1.13	0.889	1.03
P fixed	0.319	0.821	1.46	1.29	1.45	0.513	1.6	1.21	1.35	1.27
Q fixed	1.35	1.03	0.884	1.04	1.02	0.501	1.13	0.863	1.12	0.907
R fixed	0.455	1.08	0.624	1.14	1.13	0.389	1	0.871	0.989	1.17
S fixed	1.05	0.937	0.945	0.974	1.18	0.572	1.57	1	0.915	0.953
T fixed	0.833	1.1	0.832	0.984	1.05	1.08	0.863	0.843	0.696	0.905
V fixed	1.75	1.37	1.73	0.792	0.716	1.04	0.758	0.825	0.874	0.8
W fixed	0.957	1.36	1.45	1.36	0.991	0.773	0.567	1.1	0.859	0.97
pThr fixed	1.45	1.7	0.467	0.855	0.682	1.61	0.917	0.96	0.855	0.898
pTyr fixed	1.36	3.59	0.719	0.965	1.04	2.25	0.931	1.17	1.08	1.11
